Results: patent US12589171B2, “177-Lu labeled peptide for site-specific uPAR-targeting” (priority 2012, dated 2026)
Like-named read-outs stand apart in the source and are kept apart here.

Columns and labels:
in vivo = assay: in vivo; parameters: species or system NMRI nude mice; details: female, NMRI nude, mouse, iv, total radioactivity
Procedure: For PET/CT imaging, one mouse was injected with ^64Cu-DOTA-AE105 and scanned 1 h post injection. Gamma planar imaging was performed on another mouse 1 h post injection of ^177Lu-DOTA-AE105. Quantitative data were based on manual drawings of region-of-interest analyses on PET/CT data and from analyzed whole tumor tissue using a gamma-counter for planar data. A. Representative images after PET/CT (left) and Gamma planar (right) imaging of HT-29 tumor xenograft. White arrows indicate tumor xenograft. B. […] Quantitative tumor uptake data is presented as % ID/g±SEM based on three animals. Ten min static PET scans were acquired with a microPET Focus 120 scanner (Siemens Medical Solutions, Malvern, PA) 1 hr post i.v. injection of approximately 10 MBq of either ^64Cu-DOTA-AE105 or ^18F-FLT during sevoflurane anesthesia. All PET/CT settings were used as described in detail previously. All results were analyzed using Inveon software (Siemens Medical Solutions) and PET data was expressed as percent of injected dose per gram tissue (% ID/g), with CT-data expressed as cubic millimeters (mm^3). […] This is illustrated in FIG. 2A (left), where a colorectal HT-29 tumor bearing mouse was PET/CT scanned using ^64Cu-DOTA-AE105. […] In FIG. 2A (right) is a representative planar image of a HT-29 tumor bearing mice after injection of ^177Lu-DOTA-AE105.

[1] = Biodistribution in Nude mice bearing HT-29 tumor xenograft (gamma-counter); type: in vivo, NMRI nude mice; details: female, NMRI nude, mouse, iv, total radioactivity
Procedure: (§1) Mice were sacrificed at 0.5, 1.0, 2.0, 4.0 and 24.0 h after injection, and a panel of organs, including blood drawn from the heart, was collected, weighed, and analyzed for radioactive content. Mean percent injected dose per gram (% ID/g)±SEM from three mice at each point is presented. A. Chemical structure of ^177Lu-DOTA-AE105. B(top) Biodistribution of ^177Lu-DOTA-AE105 in selected organs/tissues between 0.5 and 24.0 h. B (bottom). […] HT-29 colorectal cancer cells were obtained from the American Type Culture Collection (Manassas, VA, USA) and culture media was obtained from Invitrogen Co. (Carlsbad, CA, USA). The cell line was cultured in Mc.Coy's standard medium supplemented with 10% (v/v) fetal bovine serum and 1% (v/v) penicillin/Streptomycin at 37° C. and 5% CO2. Xenografts of human HT-29 colorectal cancer cells was established by injection of 200 μl cells (1×10^8 cells/ml) suspended in 100 μl Matrigel (BD Biosciences, San Jose, CA, USA), subcutaneously in the left and right flank of female NMRI nude mice obtained from Taconic, under anesthesia by Hypnorm/doricum (Study day −3). All animal experiments were performed under a protocol approved by the Animal Research Committee of the Danish Ministry of Justice. Biodistribution study was performed as previously described. In brief, Nude mice bearing HT-29 xenografts were injected in the tail-vein with 2-3 MBq of ^177Lu-DOTA-AE105 or ^177Lu-DOTA-AE105mut. All mice were euthanized after 0.5, 1, 2, 4 and 24 hr post tracer injection. Blood, tumor and major organs were collected (wet-weight) and the radioactivity was measured using a γ-counter from Perkin Elmer, MA, USA (N=4 mice/group).

HT-29 tumor xenograft = assay: as above; type: in vivo, NMRI nude mice; details: mouse, in vivo
Procedure: as §1

[2] = Toxicity in HT-29 therapy study (body weight, kidney H&E, deaths); type: in vivo, NMRI nude mice; details: HT-29 study
From the text: Results are presented as the mean±SEM, n=6 animals/group. B, H&E staining of kidney sections representing kidney epithelia (top) and glomerulus (Bottom) from each treatment group. […] One pair of kidneys from one animal/group was stained. Scale bar=25 μm, 40× zoom.
Three days after tumor cell inoculation (study day 0), 18 nude mice bearing the human colorectal carcinoma xenograft HT-29 in each flank were randomly divided into three groups consisting of 6 animals each. All animals in each group were first baseline PET/CT scanned with ^18F-FLT (day 0) before being dosed with 20 MBq of either ^177Lu-DOTA-AE105, ^177Lu-DOTA-AE105mut or vehicle. Subsequently, PET/CT scans of all mice in each group were repeated with ^18F-FLT on study day 1, 3 and 6. Second treatment dose (20 MBq) was administrated on day 7, followed by CT-scan day 8, 10 and 14 to measure tumor volumes using manual ROI drawing on the reconstructed images. On day 14, all animals were euthanized and tumors and kidneys were collected and kept for further analysis at −80° C.
uPAR ELISA on resected HT-29 tumors was done as described previously in detail. All results were performed as duplicate measurements. Expression of uPAR in formalin fixed and paraffin embedded tumor tissue was evaluated by immunohistochemical staining (FIG. 7) as previously published. A general histopathology examination was performed on H&E stained kidney tissue (one pair of kidneys from one animal from each treatment group) and performed by a trained pathologist (ODL).

[3] = parameters: species or system NMRI nude mice; details: mouse, in vivo
From the text: The organ uptake values, were time integrated to obtain the residence time per gram tissue for dosimetry calculations. Integration between time 0 and 24 hr was made by the trapezoid method. All time points were used to fit to a double exponential function (2-compartment model), which was used to estimate the residence time from 24 hr to infinity. The extrapolated area was in all organs/tissues <17% of the total calculated area, except kidneys (36.1%) and spleen (30.0%). The radioactive decay of ^177Lu produces mainly low energy […]. The S value for a 1 g sphere (0.0233 mGy/MBq s) was used to calculate the organ doses by multiplying it to the organ residence values as previously described. Based on the biodistribution data of ^177Lu-DOTA-AE105, estimates of the dosimetry were calculated (Table 1). […] However, the uPAR-positive fraction of the HT-29 tumor have previously been found only to be located in periphery of the tumor[25]. […] With this is mind and with the knowledge of the small penetration range of ^177Lu beta radiation (<2 mm), the present inventors calculated an estimate of local uPAR-positive tumor fraction dosimetry of approximate 58 mGy/MBq, thus resulting in the highest exposure for all organs/tissue investigated.

Work on CC(C)C[C@H](NC(=O)[C@H](Cc1ccc(O)cc1)NC(=O)[C@@H](CCCNC(=N)N)NC(=O)[C@@H](CO)NC(=O)[C@H](Cc1ccccc1)NC(=O)[C@H](CC1CCCCC1)NC(=O)[C@H](CC(=O)O)NC(=O)CN1CCN(CC(=O)O)CCN(CC(=O)O)CCN(CC(=O)O)CC1)C(=O)N[C@@H](Cc1c[nH]c2ccccc12)C(=O)N[C@@H](CO)C(N)=O [^64Cu-DOTA-AE105, metal not drawn] yielded a tissue uptake at 1 h (in vivo) of 0.86 ± 0.03 %ID/g.
CC(C)C[C@H](NC(=O)[C@H](Cc1ccc(O)cc1)NC(=O)C(CCCNC(=N)N)NC(=O)C(CO)NC(=O)C(Cc1ccccc1)NC(=O)[C@H](CC1CCCCC1)NC(=O)[C@H](CC(=O)O)NC(=O)CN1CCN(CC(=O)O)CCN(CC(=O)O)CCN(CC(=O)O)CC1)C(=O)N[C@@H](Cc1c[nH]c2ccccc12)C(=O)N[C@@H](CO)C(N)=O (stereo partly drawn) [^177Lu-DOTA-AE105, metal not drawn] gave a tissue to tissue ratio at 1 h ([1]; in vivo) of 12, a tissue to tissue ratio at 24 h ([1]; in vivo) of 3.3 and a tissue uptake at 0.5 h ([1]; in vivo, % ID/g Blood) of 2.71 %ID/g. For the same compound, the tissue uptake at 1 h ([1]; in vivo, % ID/g Blood) was 0.282 %ID/g, the tissue uptake at 2 h ([1]; in vivo, % ID/g Blood) was 0.173 %ID/g and the tissue uptake at 4 h ([1]; in vivo, % ID/g Blood) was 0.043 %ID/g. For the same compound, the tissue uptake at 24 h ([1]; in vivo, % ID/g Blood) was 0.005 %ID/g, the tissue uptake at 0.5 h ([1]; in vivo, % ID/g Bone) was 0.696 %ID/g and the tissue uptake at 1 h ([1]; in vivo, % ID/g Bone) was 0.699 %ID/g. The tissue uptake at 2 h ([1]; in vivo, % ID/g Bone) was 0.267 %ID/g, the tissue uptake at 4 h ([1]; in vivo, % ID/g Bone) was 0.258 %ID/g and the tissue uptake at 24 h ([1]; in vivo, % ID/g Bone) was 0.32 %ID/g. The tissue uptake at 0.5 h ([1]; in vivo, % ID/g Brain) was 0.075 %ID/g, the tissue uptake at 1 h ([1]; in vivo, % ID/g Brain) was 0.038 %ID/g and the tissue uptake at 2 h ([1]; in vivo, % ID/g Brain) was 0.026 %ID/g. The tissue uptake at 4 h ([1]; in vivo, % ID/g Brain) was 0.019 %ID/g, the tissue uptake at 24 h ([1]; in vivo, % ID/g Brain) was 0.005 %ID/g and the tissue uptake at 0.5 h ([1]; in vivo, % ID/g Heart) was 0.757 %ID/g. For the same compound, the tissue uptake at 1 h ([1]; in vivo, % ID/g Heart) was 0.143 %ID/g, the tissue uptake at 2 h ([1]; in vivo, % ID/g Heart) was 0.082 %ID/g and the tissue uptake at 4 h ([1]; in vivo, % ID/g Heart) was 0.05 %ID/g. For the same compound, the tissue uptake at 24 h ([1]; in vivo, % ID/g Heart) was 0.017 %ID/g, the tissue uptake at 0.5 h ([1]; in vivo, % ID/g Intestine) was 0.579 %ID/g and the tissue uptake at 1 h ([1]; in vivo, % ID/g Intestine) was 0.196 %ID/g. The tissue uptake at 2 h ([1]; in vivo, % ID/g Intestine) was 0.271 %ID/g, the tissue uptake at 4 h ([1]; in vivo, % ID/g Intestine) was 0.289 %ID/g and the tissue uptake at 24 h ([1]; in vivo, % ID/g Intestine) was 0.078 %ID/g. It also gave a tissue uptake at 0.5 h ([1]; in vivo, % ID/g Liver) of 0.686 %ID/g, a tissue uptake at 1 h ([1]; in vivo, % ID/g Liver) of 0.249 %ID/g and a tissue uptake at 2 h ([1]; in vivo, % ID/g Liver) of 0.243 %ID/g. For the same compound, the tissue uptake at 4 h ([1]; in vivo, % ID/g Liver) was 0.284 %ID/g, the tissue uptake at 24 h ([1]; in vivo, % ID/g Liver) was 0.149 %ID/g and the tissue uptake at 0.5 h ([1]; in vivo, % ID/g Muscle) was 0.58 %ID/g. For the same compound, the tissue uptake at 1 h ([1]; in vivo, % ID/g Muscle) was 0.084 %ID/g, the tissue uptake at 2 h ([1]; in vivo, % ID/g Muscle) was 0.047 %ID/g and the tissue uptake at 4 h ([1]; in vivo, % ID/g Muscle) was 0.053 %ID/g. It also gave a tissue uptake at 24 h ([1]; in vivo, % ID/g Muscle) of 0.01 %ID/g, a tissue uptake at 0.5 h ([1]; in vivo, % ID/g Spleen) of 0.924 %ID/g and a tissue uptake at 1 h ([1]; in vivo, % ID/g Spleen) of 0.262 %ID/g. The tissue uptake at 2 h ([1]; in vivo, % ID/g Spleen) was 0.222 %ID/g, the tissue uptake at 4 h ([1]; in vivo, % ID/g Spleen) was 0.303 %ID/g and the tissue uptake at 24 h ([1]; in vivo, % ID/g Spleen) was 0.109 %ID/g. The tissue uptake at 0.5 h ([1]; in vivo, % ID/g Tumor) was 1.78 %ID/g, the tissue uptake at 1 h ([1]; in vivo, % ID/g Tumor) was 0.614 %ID/g and the tissue uptake at 2 h ([1]; in vivo, % ID/g Tumor) was 0.17 %ID/g. It also gave a tissue uptake at 4 h ([1]; in vivo, % ID/g Tumor) of 0.17 ± 0.02 %ID/g, a tissue uptake at 24 h ([1]; in vivo, % ID/g Tumor) of 0.057 %ID/g and a tissue uptake at 0.5 h ([1]; kidney, Kidney, 0.5 h after injection, read-out: % ID/g Kidney) of 6.17 %ID/g. For the same compound, the tissue uptake at 1 h ([1]; kidney, Kidney, 1.0 h after injection, read-out: % ID/g Kidney) was 2.44 %ID/g, the tissue uptake at 2 h ([1]; kidney, Kidney, 2.0 h after injection, read-out: % ID/g Kidney) was 1.91 %ID/g and the tissue uptake at 4 h ([1]; kidney, Kidney, 4.0 h after injection, read-out: % ID/g Kidney) was 1.67 %ID/g. The tissue uptake at 24 h ([1]; kidney, Kidney, 24 h after injection, read-out: % ID/g Kidney) was 0.839 %ID/g, the “% ID/g Tumor” value (HT-29 tumor xenograft; female, NMRI nude, iv, 4 h) was 0.176 % ID/g and the “clearance from blood and organs” value (HT-29 tumor xenograft) was “fast clearance rate from blood and all organs investigated”. The premature deaths [2] was “No animals died prematurely”, the “Dosimetry Blood” value [3] was 4.9 mGy/MBq and the “Dosimetry Bone” value [3] was 1.8 mGy/MBq. For the same compound, the “Dosimetry Brain” value [3] was 0.4 mGy/MBq, the “Dosimetry Heart” value [3] was 2.0 mGy/MBq and the “Dosimetry Intestine” value [3] was 2.9 mGy/MBq. The “Dosimetry Kidney” value [3] was 52.9 mGy/MBq, the “Dosimetry Liver” value [3] was 2.4 mGy/MBq and the “Dosimetry Muscle” value [3] was 1.2 mGy/MBq. The “Dosimetry Spleen” value [3] was 5.5 mGy/MBq and the “Dosimetry Tumor” value [3] was 5.8 mGy/MBq.
